A short description of this data set: soluble on expression in E. coli; label from the status in PepcDB or PDB records.
On to “MSLDYHKQFIGELSQVSYHIIGYGSYYEEALIKYLGESIERYATVIAGDLLSDRIVYASYNELKLLHKVMPLEYLQVFTQEQIALSCDLQMMMCDKMVTENDVLGWVKCPMFFEDAEMYVPAQMLCVGYKTNETVGERRIIPGFSTGTASHKTLEAAMCNSLIEYIQIDSMMLSWYTKKPCPKIIVDDPDIEVILEEARLGKDSLYDIIPIDMTVGEDNPLYTFGIILKNKYDEGPYLLFGVQAGLDPKHALLRGIMEASAISYSYYYNLLYQKASLANIECEEPLFLDLDSNVFYYAHPKDQDHKWKAFEPLISGEVLLSDLEDHSGKDKKEDLKTLLAYAKKVSPNAVFLDITPPEALEKGWYVTRVLMPELLEMCIPAFPFANHPRMRQFGGVTNAFVHPMPEGHHHHHH”, for which the “soluble on expression in E. coli” value is listed as “soluble”.

On to “GAVGLTIRSNITYSKNEIVDRDEENNYYWYKMQKGHRVNQARGLISLGLFKDYDDIRNSPVQDFDGYKVMPGDIKYKDVNGDGKIDGNDQVAIGATTKPNLIYGFGIAANWKGLDVNLHFQGAGKSTYFIDGSTVHMFKLGDGWGNVLSEMANSNRWISADISGDPATENPNAEYPRLSYGPNSNNYQQSTYWLRNGSYLRLKTVEVGYTLPTQLVNKVHFNTVRIFFVGTNLLTWSAFKLWDPEMGSTDGKRYPLSKNLSLGISVNL”, for which the “soluble on expression in E. coli” value is reported as “not soluble”. The result for “MSDRKAVIKNADMSEDMQQDAVDCATQAMEKYNIEKDIAAYIKKEFDKKYNPTWHCIVGRSGNFGSYVTHETKHFIYFYLGQVAILLFKSG” reads “soluble”; that for “MKIKACIFDMDGTLVNSIMDIAFSMNSALSNLGYSKIELSKFNALVGRGFNKFVIDTLKLLSLEHDNPNLQEKLYKEFVKEYNKNLSFQTKPYENIKPLLETMNKLNIPIGILSNKNHEELINLVKNIFGNILFFEIRGYSKNFPPKPDPENALDMILELNAQKEEIAYIGDSDVDMLTALNAGFMPIGVSWGFRSVQELKESGAKHIIHNPLELLDLIK”, “not soluble”; that for “GPGSMIPGLPPAFDVECNRMEDVFASVKSRTVGKDGNLLSPEESWVQRELQYYENLYTEQQELTVCLVTFNVACKKPPANLAALISLKMAEDTNRPVDLIMVSLQEVDMSASAMLKEETEASTPWVVGLHAAVGADSRSPSNTPYFAFPPKQLVGLLLCVYLRRQLLPYMQEMSVATVATGALGSMGNKGAIGLRLVLHRTSLCLINVHLAAGQSNVVKT”, “not soluble”. The result for “GSPGISGGGGGILVGSKMAASIRERQTVALKRMLNFNVPHVKNSPGEPVWKVLIYDRFGQDIISPLLSVKELRDMGITLHLLLHSDRDPIRDVPAVYFVMPTEENIDRLCQDLRNQLYESYYLNFISAISRSKLEDIANAALAANAVTQVAKVFDQYLN” reads “soluble”; that for “MGSDKIHHHHHHAYGILGVLAITKDEAVLVAVTGVLSVGQLYGADILKITNVEFISLRTFGSVENVDSRIIDLQRQFIDLKKMFEKIIKKILKNLQRLLSSQMFYFSSLQSYDLTRSAQHRDSHDCSDARFFWNRSLHFSFQRYGIDTDNWLLKCMAGSVLVRVVYVGANTGRVALISRLSCERVGTRFNVRGANYLGNVANFVETEQLLLFDEKECSLLQIRGSIPLFWEQPGVNVGSHKVKLRAFETSLPAYHRHLSQLQHRYGEFAIVNLLGRKEGERVLGDAFKTQHKSSHFAPLVDFIDFDYHAQMKISKEAI”, “not soluble”; that for “MVISLGDDITTVLKTVQQTLFALRDEHEAATRILEANLINSDSSEPSLPSEKMGLIDESLGKVMDGGDEASLLIMMDKLMQSYDVQLSKNHESIRLLRQENTWLLDELTTTQRKLQESERTVAHLEEERDHYKFQDSMNYLNSDFQHTTSVDATPMMVDTLQELGFGPEEEDQNNNQADQGCRSSSFSNPISNDYQLPTRLQTLQNLVIQYMEQGRFEVAIPLCKQALEDVVKVHGNVHLDVATMLNVLAIVYRNQENFKDAAIYLEKALSIRVQCCGENHHSVAATLNNLAIAYGKRGKYKESEPLCKRALEIRKNLLGPNHPDVAKQLTNLGIVTQQLEKYEETENYFKQALSIYNRAFPENHQNVIKTKNQLASVFLKQGKYQEAEEMYKNILSKVAITGNKPIWRIAEDREERQRNGIPKVDDESFNVNPTTVMDSNVMSTIKNLAAVYRKQGKEEAAGTLEEALGAKKQINGGADHTNSTASSVETSSAVAINPAQSGIKKRIMHFVGLNF”, “not soluble”. As to “MAHHHHHHMGEGTAAAPPHSQEPRLRRRPRQLTVRHVVHVQPTSYFAQFERRCRHDALLYSPFLREDRVQARPKTLPPSLHREVGEPGVYAAYNAYIFADVAGQHDPLHHRRVCAAADHGEEEAVAARVEAGGDVVVATNVSSPPRPDSSKSLSAVQLSLTPLLSFTLDDMADTADGDAGMGNRVECESGSTRIGEAHRCHPPPPLLHGTPPEAGLPLHKTWHLFTSYVQRHFTAFPTALVHRYHLHHLAPSLFPNVGAAALMQGAGGAGNATGDRAARSGTAVGVAISTEASGSGSAVRAARAKPNVSNSSSSSAEDVVEYWPYSLKLRCIPEATLQLPYKQHATAKKTTQAQQRAEMAGSARQAPSTVNASLGHDAATAAAVPSPHLPAPRKRERQVSSSGDSASAPAYTVHASASSSTATAATPRVLPPPAAAARTRPPSAPPRRVAVVDGVTSLLPYPTPASALALLSTTFLRSLRTSSVVAAAAAAAAGTGEVPATPSTLTESRADWHGGFAASHQRVDVPSTGMVGMGGGALGFLGTGSAVPSKYRNVSGTFLELHLPAYCFPGGGCPVKPLLHDDDSAHASGAAAVVAEDTPSATSASPPAGEAACARREGDAVLGFGSADSSTYSCGPATVSMDESQKTAPRRWSSAPLKMDSQQLRPWGGYPGLWRGQCRAARLSMRASPWR”, the “soluble on expression in E. coli” value was “soluble”. The result for “MKTRTQQIEELQKEWTQPRWEGITRPYSAEDVVKLRGSVNPECTLAQLGAAKMWRLLHGESKKGYINSLGALTGGQALQQAKAGIEAVYLSGWQVAADANLAASMYPDQSLYPANSVPAVVERINNTFRRADQIQWSAGIEPGDPRYVDYFLPIVADAEAGFGGVLNAFELMKAMIEAGAAAVHFEDQLASVKKCGHMGGKVLVPTQEAIQKLVAARLCADVTGVPTLLVARTDADAADLITSDCDPYDSEFITGERTSEGFFRTHAGIEQAISRGLAYAPYADLVWCETSTPDLELARRFAQAIHAKYPGKLLAYNCSPSFNWQKNLDDKTIASFQQQLSDMGYKFQFITLAGIHSMWFNMFDLANAYAQGEGMKHYVEKVQQPEFAAAKDGYTFVSHQQEVGTGYFDKVTTIIQGGTSSVTALTGSTEESQF” reads “soluble”; that for “MSLATSRTVLPDDLLINASDEVLTRQDLVLTALGRRPADRLLRVGRLLDVHSRTWLDDQEIVIKGRRIAYVGPAGSYAGEVNERFSEPDLAAVPGFGEAHKHIESSHLTPEWEAALVMPHGVTWTCEASHEFSNVNGARNLEFWLEARRRGSPMKIFPLPGSAVPPTAYEWGGGWFGYDEQKAFLSESLMVAGLDEVMDWPSISDPGNPSYDRLWGMIGATFEQRGVVEGHGAGLRDMASINAFAAAGLASDHEGWFLDEIWQKLLHGLFIELRPHSLPEVIRGLIDKGLTDWSQIALVTDDRSASDTLKIGATDHNVRLAIENGLAPETAIQCVTLNPARHMRLTPWVGSIAPGRFADIVLLSDVASLSIEKVWADGRPASEGATFIGVRPEIDWPQWATRTVKIDRTVTADDFRIEAPPNRTTVNAALLRPFHWHDDFITMELPVEEGAVQRDAARNVTKFSIVDRFSGEARVSRMFWLGTGPRTPETALASTLGHDKHNIWTVGSSDEAMAISVNALNEQQGGWVLVSGGKILARVRYEVGGLMTARSAEALDAEMQALYAAGAGIDWMYEPTFSPRWWPGFPERLSFATLTCSPWRWVLVAPSELAPDGFVNVLTGKTHPIVWEGHHHHHH”, “soluble”; that for “MSNHHSSCSSRTGGAHRRCDCTEDLTENDKLWNDFEGCAQAVARLYSDSSWRNFRGAAEGTTQLYKTSTDSYRRGFEKGFSSGCTSIAKEILQAFRDPSKIDMNIVLEVLYRNMAIPREERLTVNTQNGISSDTLAAVELFQQALNQPQVPPLSTLSLLPPTTREQTTDTLDEFLASQVQRHRKRQRSPNNSTTSPTSQMKRQRRL”, “soluble”. Under “MGSDKIHHHHHHMKKLLNTLYVTSENSYLGLDGENVVVYDDKNEIGRLPLHNLEAIISFGYRGTSPALMGACADRNISLCYLTPQGKFLARVSGKVKGNVVLRKQQFQSSSEDIKCLEIAKNCILGKVYNSRWVLERAIRDHSMQIDVDKVKKASIKLKEFLDYIQNSQSMNQLRGYEGEAASIYFGVFDELILQQKKDFFFQGRNRRPPLDNVNAMLSFTYTLLTTQITSALEVVGLDPYVGYMHTERPGRVSLSLDLIEELRAVMADRFVLSLINKKIVNGKSFTKKENGAVLMDTDIRKKLLSEWQNKKKEIITHPYLNEKVEWGMVPFVQAMLLARYLRGDLDEYPVFLWK” stands “not soluble”. The result for “MLEKGGIRVIDEKTLEIIVREVLTNLTSDKGTQNQQKTASSSLPKLDPKRDYPLAKNKPELAKSITGKTINEITLQAVREGKVLPDDLKISPETLLAQAEIAEAAGRKQLANNFRRAAELTKVPDKRILEIYNALRPYRSTKEELLAIADELDNAYGAKVCAAFVREAAEVYERRGRLKGME” reads “not soluble”; that for “MGSDKIHHHHHHMGTKKNFVIDTNVILHDYNCLKNFQENDIHLPLVVLEELDKFKKGNEQINFNAREFVRELDLLTSDELFSQGVSLGEGMGRLFVVPGNVDAPKVHESFPVKKPDHLILAAVEYLAAKYPKTPAILVTKDVNLRMKARSIGITSEDYITDKVSNVDIFEKSNEIFENVDPALIDRIYSSKEGIDLSEFDFKDVIHPNECFVLKSDRNSVLARYNPFTHSICRVTKGRNYGIEPRNAEQSFAFEILNDPNVKLVALTGKAGTGKTLLALAAALGKLTDYKQVLLARPVVALSNKDIGFLPGDAQEKVAPYMQPLFDNLNVIKRQFAANSTEVKRIEDMQKSEQLVIEALAFIRGRSLSEMYCIIDEAQNLTPNEIKTIITRAGEGTKMVFTGDIQQIDQPYLDSQSNGLVYMIDRMKDQNIFAHVNLVKGERSQLSELASNLL”, “not soluble”. In the case of “TKLSPELLVKLGSEGVLAGVKDSSGDDVSFRRLVMLNKKAGSPLTLLTGHEAVVDGAFIAGADGCVPGLGNVDPAGYVRMWKAAEAGDWATVQKEQDRLAALFEIVFQPIGKVGPAAGVGSFKTALE”, the “soluble on expression in E. coli” value is “not soluble”. The result for “MGSDKIHHHHHHMGLLTKGSPLTWAETVPHIDYIKKHGIAQFINLYHRLKSRHGDQLKWGDEIEYTIVKFDDANKKVRVSCKAEELLNKLQAEEQVNAMLGTANRFLWRPEFGSYMIEGTPGMPYGGLIACFNIVEANMKLRRQDETCLSISFPSLGVPGFTFPEVAADRKNDDAANSVFWPEQAVFLGHPRFKNLTKNIKGRRGSKVAINVPIFKDTNTPSPFVEDLSALGGPDDTRDAKPDHIYMDHMGFGMGCCCLQVTFQAVNVDEARWLYDQLTPITPILLALSAATPIFRGKLSNVDSRWDIISASVDDRTPEERGLEPLKNSKWVIDKSRYDSTDCYIYPCSVGYNDIPLQYDETIYKQLIDGNIDEPLAKHIAHMFIRDPHQVFRERIEQDDEKSSEHFETIQSSNWMNMRFKPPPPDAPEIGWRVEFRPTEVQLTDFENAAYCCFVVLLTRMMISFRLTYLMPISMVTENMKRAQQKDAVLNQKFLFRKGLAECKSAPENLKGSEKCGPPSQDIEEMSIDEIINGKKNGFPGLISLIRQFLDSADVDVDTRCTISQYLNFISKRATGEINTLAHWTRGFVQSHPAYKHDSDVNDNIVYDLLKKMDAISNGEDHCEKLLGCYRSKTDHAISAAVRKAEEHMIVSSQKRAH” reads “not soluble”.

For “MNIAIGTTQDRALYEDALRVRRLVFIEEQNVPEDEEIDAFEDDSFHLVLYDGQTPVGAGRLRFIDEGVGKIERICVLPSYRGRGAGRMVMEAIEQLAKTKGAKTAKLNAQTHAEPFYQKLGYTTVSGVFMDAGIPHVTMVKSLE”, the “soluble on expression in E. coli” value is on record as “soluble”.

The values are drawn from the DeepSol protein solubility set.
